In the data set the test system is MS2 coat protein. Briefly: apparent KD of MS2 coat protein; designed switch direction (-1 OFF switch, 1 ON switch): -1; higher = weaker reporter binding. The method in brief: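 Apparent KD, taken as the median over clusters for each design, was obtained by curve-fitting normalised cluster fluorescence. Designed RNA switches had been transcribed on Illumina chips by stalled E. coli RNA polymerase and titrated with SNAP-549-labelled MS2 coat protein, doubling from 0.7 or 1.5 nM to 3 µM.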

Where [1] appears, read: input ligand: microRNA oligo, concentration not stated.
The mark [2] stands for this setting: Eterna round: R95, input ligand: microRNA oligo, concentration not stated.

Take “UGUUGUCGCGCAGGAUAUGAGGAUCACCCAUGUAGAGGAUAUGAAAAGAAGGCUCUGAGGAUUACCCAGAAGGGCGGGACAACU [pwkr exNG2 2xF5 2xFMN.25] (Eterna round: R96, puzzle: Exclusion NG 2)”: the “apparent KD of MS2 coat protein” value is, setting by setting: (input ligand: FMN 200 uM) 800 nM; under setting [1], 270 nM; (input ligand: none) 400 nM.

For the sequence “UGUUGUCGCGCAGGAUAUGGCCAACAGGCCCUAGGAUAUCCGAAAGGAGAAGGAGCGCCAACAGGCGAGAAGGGCGGGACAACU [pwkr exNG2 2xF7 2xFMN.16] (Eterna round: R96, puzzle: Exclusion NG 2)”, the “apparent KD of MS2 coat protein” value (input ligand: FMN 200 uM) was 19.5 nM, the “apparent KD of MS2 coat protein” value under setting [1] is 4.03 nM and the “apparent KD of MS2 coat protein” value (input ligand: none) was determined as 29.7 nM.

In the case of “UGUUGUCGCGCAGGAUAUGUAUGAGGAUCACCCAUUAAUAAAUUUUAACCACGAGGAUCACCCGUGUAGAAGGGCGGGACAACA [pwkr exNG2 2xF5 1xFMN.15] (Eterna round: R96, puzzle: Exclusion NG 2)”, the “apparent KD of MS2 coat protein” value is 30.8 nM (input ligand: FMN 200 uM), 18.3 nM under setting [1] and 29.5 nM (input ligand: none).

For the sequence “UGUUGUUACGCAGGAUAUGAGGAUCACCCAUAUUAGGAUAUCGAAAGAGAAUUUCUGAGGAUCACCCAGAAGGGCGGGUUAACA [pwkr exNG2 2xF5 2xFMN.36] (Eterna round: R96, puzzle: Exclusion NG 2)”, the “apparent KD of MS2 coat protein” value stood at 118 nM (input ligand: FMN 200 uM), 38.5 nM under setting [1] and 47.3 nM (input ligand: none).

For the sequence “UGUUGUUACGCAGGAUAUGUAUGAGGAUCACCCAUUAAUAAAUUUUAACCACGAGGAUCACCCGUGUAGAAGGGCGGGUUAACA [pwkr exNG2 2xF5 1xFMN.13] (Eterna round: R96, puzzle: Exclusion NG 2)”, the “apparent KD of MS2 coat protein” value runs as follows: (input ligand: FMN 200 uM) 96.3 nM; under setting [1], 65 nM; (input ligand: none) 105 nM.

In the case of “UGUUGUUACGCAGGAUAUUGCCAACAGGCAGUAGGAUAUCCGAAAGGAGAAGGACCGCCAACAGGCGAGAAGGGCGGGUUAACA [pwkr exNG2 2xF7 2xFMN.10] (Eterna round: R96, puzzle: Exclusion NG 2)”, the “apparent KD of MS2 coat protein” value reads like this: (input ligand: FMN 200 uM) 370 nM; under setting [1], 227 nM; (input ligand: none) 16.3 nM.

“UGUUGUUACGUAGGAUAUGAGGAUCACCCAUAGAAGGAUAUCGAAAGAGAAGGUCUGAGGAUUACCCAGAAGGACGGGUUAACA [pwkr exNG2 2xF5 2xFMN.4] (Eterna round: R96, puzzle: Exclusion NG 2)”: the “apparent KD of MS2 coat protein” value (input ligand: FMN 200 uM) came out at 1340 nM, the “apparent KD of MS2 coat protein” value under setting [1] worked out at 131 nM and the “apparent KD of MS2 coat protein” value (input ligand: none) was 139 nM.

Consider “UGUUUACAUGAGGAUCACCCAUGUCAGGAUAUGCUCGAUAUAUGGAAACAUAUAUCGAGCAGAAGGGACUAGCG [Jieuxxlusion 4 - Jieux - Exclusion 1] (Eterna round: R97, puzzle: Exclusion 1)”, for which the “apparent KD of MS2 coat protein” value was found to be 85 nM (input ligand: FMN 200 uM) and 39.3 nM (input ligand: none).

Turning to “UUAAAACAUGUAGGAUAUGCGUAGAAAAGCUAUGCAGAAGGACAUGAGGAUCACCCAUGUUCAACCAUCAACGUACAGAUGGAA (Eterna round: R96, puzzle: Exclusion NG 1)”, the “apparent KD of MS2 coat protein” value was 31.7 nM (input ligand: FMN 200 uM), 12.1 nM under setting [1] and 14.1 nM (input ligand: none).

Regarding “UUAAAUCAUGUAGGAUAUGCGUGGCGAAGCUAUGCAGAAGGACAUGAGGAUCACCCAUGUCUUUCCGUCUGCGUACAGAUGGAA [JL Eng1 1.08 mod 2] (Eterna round: R96, puzzle: Exclusion NG 1)”, the “apparent KD of MS2 coat protein” value was 259 nM (input ligand: FMN 200 uM), 19.8 nM under setting [1] and 24.8 nM (input ligand: none).

For “UUAAAUCAUGUAGGAUAUGCGUGGCGAAGCUAUGCAGAAGGACAUGAGGAUCACCCAUGUGCUUGCGUCCGCGUACGGAUGCUA [JL ENG1 1.22] (Eterna round: R96, puzzle: Exclusion NG 1)”, the “apparent KD of MS2 coat protein” value by setting is: (input ligand: FMN 200 uM) 195 nM; under setting [1], 94 nM; (input ligand: none) 104 nM.

On to “UUAAAUCAUGUAGGAUAUGCGUGGCGAAGCUAUGCAGAAGGACAUGAGGAUCACCCAUGUGCUUGCGUCUGAGUACAGAUGCUA [Mat - Exclusion NG 1 - Mod of JL - D4] (Eterna round: R96, puzzle: Exclusion NG 1)”, for which the “apparent KD of MS2 coat protein” value worked out at 86.4 nM (input ligand: FMN 200 uM), 74 nM under setting [1] and 117 nM (input ligand: none).

As to “UUAAAUCAUGUAGGAUAUGCUUUGCAAAGCGAGGCAGAAGGACAUGAGGAUCACCCAUGUGCUAGCGUCCGAGAACGGAUGCAA [Mat - Exclusion NG 1 - Mod of JL - D64] (Eterna round: R96, puzzle: Exclusion NG 1)”, the “apparent KD of MS2 coat protein” value runs as follows: (input ligand: FMN 200 uM) 503 nM; under setting [1], 41.6 nM; (input ligand: none) 46.6 nM.

In the case of “UUAAAUCAUGUAGGAUAUGCUUUGCGAAGCGAGGCAGAAGGACAUGAGGAUCACCCAUGUGCUAGCGUCCGAGAACGGAUGCAA [Mat - Exclusion NG 1 - Mod of JL - D63] (Eterna round: R96, puzzle: Exclusion NG 1)”, the “apparent KD of MS2 coat protein” value is, setting by setting: (input ligand: FMN 200 uM) 149 nM; under setting [1], 51.8 nM; (input ligand: none) 79.6 nM.

“UUAACAUGCUGGUGAUCAUACAUGAGGAUCACCCAUGUAACAAGCUUUUUGUUCGUCUUAUAAGAUCACCAGCAUGU [Stov1/9-B1] (Eterna round: R97, puzzle: Sensor, turn-off variant 1)”: the “apparent KD of MS2 coat protein” value worked out at 18.7 nM (input ligand: FMN 200 uM) and 17.2 nM (input ligand: none).

Take “UUAAGCUUUGAGAUCCUUAACAUGAGGAUCACCCAUGUUCGUCUUAUGAUGGUCUGAUCCCUGAGGAUCGGACCGUU [Mat - Sensor v3 - turn-off var 1 - JL Mod - D3] (puzzle: Sensor v3, turn-off variant 1)”: the “apparent KD of MS2 coat protein” value (Eterna round: R95, input ligand: FMN 200 uM) was found to be 261 nM; the “apparent KD of MS2 coat protein” value under setting [2] came to 22.5 nM; the “apparent KD of MS2 coat protein” value (Eterna round: R95, input ligand: none) came out at 303 nM.

With “UUAAGGAUAGAGGAUAUAUUAAAGAAGGUGGCGAUAGAAGGCUAGACAUGAGGAUCACCCAUGUAAAUUGGGAU [JR_Ex6_Sub068] (Eterna round: R97, puzzle: Exclusion 6)”, the “apparent KD of MS2 coat protein” value is, setting by setting: (input ligand: FMN 200 uM) 378 nM; (input ligand: none) 309 nM.

In the case of “UUAAUAAGUGUGAGGAUAUGCUGGUCCUUGGAUCAGCAGAAGGCACAUGAGGAUCACCCAUGUACAAUAUAUUA [Mat - Exclusion 4 - JL Mod - D31] (puzzle: Brourd's mod of Exclusion 4)”, the “apparent KD of MS2 coat protein” value under setting [2] stood at 33.9 nM.

Take “UUAAUACAUGUAGGAUAUGCGUGGCGAAGCUAUGCAGAAGGACAUGAGGAUCACCCAUGUUCUUGCGUCCGCGUACGGAUGCAA [JL Eng1 1.21 mod 4] (Eterna round: R96, puzzle: Exclusion NG 1)”: the “apparent KD of MS2 coat protein” value amounted to 29.4 nM (input ligand: FMN 200 uM), 10.2 nM under setting [1] and 15.2 nM (input ligand: none).

With “UUAAUGUGAGGAUAUCAGGUGUGCUAGCGUACUGGUACAUCUGAGAAGGCACAUGAGGAUCACCCAUGUUCCAG [JL-ex4-3.29 Brourd mod] (puzzle: Exclusion 4)”, under setting [2], the “apparent KD of MS2 coat protein” value stood at 30.5 nM.

Values taken from the supplement of paper PMC9170038.
